The results in this text go back to paper PMC7865148 (Proceedings of the National Academy of Sciences of the …, 2021).

Sequences and labels used below:
T1: NST1-GST fusion protein (Arabidopsis thaliana, UniProt Q84WP6 1-365)
T1 sequence (looked up): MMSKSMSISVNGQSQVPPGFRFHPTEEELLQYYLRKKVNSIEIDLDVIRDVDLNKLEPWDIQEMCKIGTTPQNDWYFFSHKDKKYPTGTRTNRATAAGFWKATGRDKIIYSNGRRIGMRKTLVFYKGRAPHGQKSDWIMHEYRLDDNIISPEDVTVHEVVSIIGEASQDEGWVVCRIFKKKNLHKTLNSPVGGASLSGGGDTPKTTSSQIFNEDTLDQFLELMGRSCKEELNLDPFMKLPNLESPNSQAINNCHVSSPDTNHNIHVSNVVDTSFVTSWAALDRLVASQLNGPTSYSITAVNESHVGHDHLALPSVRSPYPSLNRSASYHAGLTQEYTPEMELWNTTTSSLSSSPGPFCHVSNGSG

B1: SnRK2.6-6xHis fusion protein (enzyme, Arabidopsis thaliana, UniProt Q940H6 1-362, looked up)
chain: MDRPAVSGPMDLPIMHDSDRYELVKDIGSGNFGVARLMRDKQSNELVAVKYIERGEKIDENVKREIINHRSLRHPNIVRFKEVILTPTHLAIVMEYASGGELFERICNAGRFSEDEARFFFQQLISGVSYCHAMQVCHRDLKLENTLLDGSPAPRLKICDFGYSKSSVLHSQPKSTVGTPAYIAPEVLLKKEYDGKVADVWSCGVTLYVMLVGAYPFEDPEEPKNFRKTIHRILNVQYAIPDYVHISPECRHLISRIFVADPAKRISIPEIRNHEWFLKNLPADLMNDNTMTTQFDESDQPGQSIEEIMQIIAEATVPPAGTQNLNHYLTGSLDIDDDMEEDLESDLDDLDIDSSGEIVYAM
B2: SnRK2.2-6xHis fusion protein (enzyme, Arabidopsis thaliana, UniProt Q39192 1-362, looked up)
chain: MDPATNSPIMPIDLPIMHDSDRYDFVKDIGSGNFGVARLMTDRVTKELVAVKYIERGEKIDENVQREIINHRSLRHPNIVRFKEVILTPSHLAIVMEYAAGGELYERICNAGRFSEDEARFFFQQLISGVSYCHAMQICHRDLKLENTLLDGSPAPRLKICDFGYSKSSVLHSQPKSTVGTPAYIAPEILLRQEYDGKLADVWSCGVTLYVMLVGAYPFEDPQEPRDYRKTIQRILSVTYSIPEDLHLSPECRHLISRIFVADPATRITIPEITSDKWFLKNLPGDLMDENRMGSQFQEPEQPMQSLDTIMQIISEATIPTVRNRCLDDFMADNLDLDDDMDDFDSESEIDVDSSGEIVYAL
B3: SnRK2.3-6xHis fusion protein (enzyme, Arabidopsis thaliana, UniProt Q39193 1-361, looked up)
chain: MDRAPVTTGPLDMPIMHDSDRYDFVKDIGSGNFGVARLMRDKLTKELVAVKYIERGDKIDENVQREIINHRSLRHPNIVRFKEVILTPTHLAIIMEYASGGELYERICNAGRFSEDEARFFFQQLLSGVSYCHSMQICHRDLKLENTLLDGSPAPRLKICDFGYSKSSVLHSQPKSTVGTPAYIAPEVLLRQEYDGKIADVWSCGVTLYVMLVGAYPFEDPEEPRDYRKTIQRILSVKYSIPDDIRISPECCHLISRIFVADPATRISIPEIKTHSWFLKNLPADLMNESNTGSQFQEPEQPMQSLDTIMQIISEATIPAVRNRCLDDFMTDNLDLDDDMDDFDSESEIDIDSSGEIVYAL

In this assay the target is T1, NST1-GST fusion protein. Kind of assay: pull-down.
On to B1, for which the binding result is on record as “binds”.

Turning to B2, the binding result is “binds”.

Consider B3, for which the binding result is reported as “binds”.
